This passage reports EC50 and Kd results from US20170355769A1 (AbbVie / Abbott, published 2017).

Experiment [1] deals with T1, Human full length B7-H3 (human, UniProt Q5ZPR3 29-534).
T1 construct: On 3T12 fibroblasts expressing full length human B7-H3 or on NCI-H1650 cells; signal peptide residues 1-28 stated; also called huB7-H3; CD276
T1 sequence: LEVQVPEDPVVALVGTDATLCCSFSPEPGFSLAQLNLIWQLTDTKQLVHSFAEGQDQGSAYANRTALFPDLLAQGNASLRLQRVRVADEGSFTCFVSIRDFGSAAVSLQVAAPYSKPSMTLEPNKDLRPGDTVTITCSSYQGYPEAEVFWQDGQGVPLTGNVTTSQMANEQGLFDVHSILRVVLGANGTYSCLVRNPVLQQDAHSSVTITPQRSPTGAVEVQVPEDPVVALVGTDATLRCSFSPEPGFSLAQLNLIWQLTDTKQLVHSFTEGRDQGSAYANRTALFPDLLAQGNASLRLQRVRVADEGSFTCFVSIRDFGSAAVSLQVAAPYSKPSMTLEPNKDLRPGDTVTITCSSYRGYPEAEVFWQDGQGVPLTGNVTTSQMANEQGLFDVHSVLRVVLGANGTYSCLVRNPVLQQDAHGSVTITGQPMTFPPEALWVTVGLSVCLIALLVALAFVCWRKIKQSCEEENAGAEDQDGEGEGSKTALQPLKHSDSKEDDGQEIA
Kind of experiment: FACS, cell surface human B7-H3 (as Example 6). As for the experimental part:
(§1) Cells were harvested from flasks when approximately 80% confluent using Gibco® Cell Dissociation Buffer. Cells were washed once in PBS/1% FBS (FACS buffer) then resuspended at 2.5×10⁶ cells/mL in FACS buffer. 100 μL of cells/well were added to a round bottom 96-well plate. 10 μL of a 10× concentration of mAb/ADC (final concentrations are indicated the figures). Wells were washed twice with FACS buffer and resuspended in 50 μL of secondary Ab (AlexaFluor 488) diluted in FACS buffer. The plate was incubated at 4° C. for one hour and washed twice with FACS buffer. Cells were resuspended in 100 μL of PBS/1% formaldehyde and analyzed on a Becton Dickinson LSRII flow cytometer. Data was analyzed using WinList flow cytometry analysis software.
Nine anti-B7-H3 chimeric antibodies were conjugated to the Bcl-xL inhibiting (Bcl-xLi) synthon CZ (Example 2.1) using conjugation Method A described below. The resulting ADCs (anti-B7-H3 antibodies conjugated to synthon CZ) were tested for binding to cell surface human B7-H3 by FACS (as described in Example 6) and for cell cytotoxicity in cell lines expressing B7-H3. […] Table 6 provides cell surface binding and cytotoxicity activity of anti-B7-H3 chimera ADCs against breast cancer cell HCC38 expressing human B7-H3.

The target of experiment [2] is T2, Human B7-H3-ECD (His tag) (human, UniProt Q5ZPR3 29-461).
T2 construct: SPR analyte; also called huB7-H3; soluble ECD of human B7-H3
T2 sequence: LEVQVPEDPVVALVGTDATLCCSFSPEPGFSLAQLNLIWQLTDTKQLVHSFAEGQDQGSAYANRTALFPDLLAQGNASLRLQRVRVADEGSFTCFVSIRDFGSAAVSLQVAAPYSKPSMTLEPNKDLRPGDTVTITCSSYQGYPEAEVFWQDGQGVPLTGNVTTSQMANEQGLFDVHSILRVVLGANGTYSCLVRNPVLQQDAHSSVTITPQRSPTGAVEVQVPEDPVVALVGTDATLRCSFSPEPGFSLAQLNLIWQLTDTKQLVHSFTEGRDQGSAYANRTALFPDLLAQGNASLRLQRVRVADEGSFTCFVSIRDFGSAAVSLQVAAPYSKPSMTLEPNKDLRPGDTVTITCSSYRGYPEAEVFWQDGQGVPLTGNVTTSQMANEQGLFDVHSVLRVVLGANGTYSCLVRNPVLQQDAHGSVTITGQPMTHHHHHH
Kind of experiment: SPR Biacore, naked mAb. An excerpt:
(§2) Biacore T200 SPR instruments were used to measure the binding kinetics of human B7-H3 (analyte) binding to various mAbs (ligands). The assay format was Fc-based capture via immobilized anti-mouse (Fc) (Pierce 31170) or immobilized anti-human (Fc) (Pierce 31125). A standard amine coupling protocol was employed to immobilize the capture reagents via primary amines to the carboxy-methyl (CM) dextran surface of CM5 sensorchips (Biacore); capture antibodies were coupled to a level of approximately 5000RU. For binding kinetic measurements the assay buffer was HBS-EP+ (Biacore): 10 mM Hepes, pH7.4, 150 mM NaCl, 3 mM EDTA, 0.05% polysorbate 20. During the assay, all measurements were referenced against the capture surface alone. Each assay cycle consisted of the following steps: 1) Capture of ligand to approximately 50RU; 2) Analyte injection over both reference and test surface, 240 μL at 80 μL/min, after which the dissociation was monitored for 900 seconds at 80 μL/min; 3) Regeneration of capture surface with low pH glycine. […] Data were processed and fit to a 1:1 binding model using Biacore T200 Evaluation Software to determine the binding kinetic rate constants, kₐ (on-rate) and kd (off-rate), and the equilibrium dissociation constant (affinity, KD).
(§3) The parental chAb18 from which the variants were derived was also tested as a comparator.

In experiment [3] the target is T1, Human full length B7-H3. Kind of experiment: FACS, NCI-H1650 cells. The protocol:
To generate purified chimeric antibodies, expression vectors were transiently transfected into HEK293 6E suspension cell cultures in a ratio of 60% to 40% light to heavy chain construct. 1 mg/ml of polyethylenimine (PEI) or 2.6 μL/mL of Expifectamine was used to transfect the cells. Cell supernatants were harvested after five days in shaking flasks, spun down to pellet cells, and filtered through 0.22 μm filters to separate IgG from culture contaminants. Antibody-containing supernatants were purified on Akta Pure using protein A mAb SelectSure. Columns were equilibrated in PBS pH 7.4, supernatants were then passed through the column and a wash was performed with PBS pH 7.4. IgG were eluted with 0.1 M acetic acid pH 3.5 and collected in several aliquots. Fractions containing IgG were pooled and dialyzed in PBS overnight at 4° C.
as §1

The target in experiment [4] is T1, Human full length B7-H3. Kind of experiment: FACS (Example 6 method). As for the experimental part: as §1, §3
The target in experiment [5] is T2, Human B7-H3-ECD (His tag). Kind of experiment: SPR Biacore, naked mAb.
Excerpt: as §2
These variants were further characterized for binding by SPR and as ADCs conjugated to the Bcl-xL inhibitor synthon (linker warhead) CZ. […] An ADC comprising chAb3 conjugated to synthon CZ was used as a control.
This is another data set of the same source.

Where two headings read alike, the source gives them in different places.

B1: chAb11-CZ (antibody, IgG1, V domains shown)
VH: EVKLVESGGGLVQPGGSLRLSCATSGFTFTNYYMSWVRQPPGKALEWLGFIRNKANDYTTEYSASVKGRFTISRDNSQSILYLQMNTLRAEDSATYYCARESPGNPFAYWGQGTLVTVSA
VL: DIVMTQSPSSLTVTAGEKVTMTCKSSQSLLNSGTQKNFLTWYQQKPGQPPKLLIYWASTRESGVPDRFTGSGSGTDFTLTISSVQAEDLAVYFCQNDYIYPLTFGAGTKLELK
modifications: synthon CZ on reduced interchain Cys
Take B1: the midpoint of the response with Human full length B7-H3 [1], the EC50, lay at 1.12 nM.

B2: chAb18 (antibody, IgG1, V domains shown)
VH: QVQLQQSAAELARPGASVKMSCKASGYSFTSYTIHWVKQRPGQGLEWIGYINPNSRNTDYNQKFKDETTLTADRSSSTAYMQLISLTSEDSAVYYCARYSGSTPYWYFDVWGAGTTVTVSS
VL: QIVLTQSPAILSASPGEKVTMTCRASSSVSYMNWYQQKPGSSPKPWIYATSNLASGVPARFSVSVSGTSHSLTISRVEAEDAATYYCQQWSSNPLTFGAGTKLELK
notes: chimeric, huIgG1/k
Regarding B2, the Kd in experiment [2] was 0.17 nM. The molecule also gave an EC50 with Human full length B7-H3 [3] of 1.14 nM.

B3: chAb18-CZ (antibody, IgG1, V domains shown)
VH: QVQLQQSAAELARPGASVKMSCKASGYSFTSYTIHWVKQRPGQGLEWIGYINPNSRNTDYNQKFKDETTLTADRSSSTAYMQLISLTSEDSAVYYCARYSGSTPYWYFDVWGAGTTVTVSS
VL: QIVLTQSPAILSASPGEKVTMTCRASSSVSYMNWYQQKPGSSPKPWIYATSNLASGVPARFSVSVSGTSHSLTISRVEAEDAATYYCQQWSSNPLTFGAGTKLELK
modifications: synthon CZ on reduced interchain Cys
Consider B3, for which the results for the EC50 with Human full length B7-H3 [4] and with Human full length B7-H3 [1] were 1.14 nM and 1.78 nM, respectively.

B4: chAb6-CZ (antibody, IgG1, V domains shown)
VH: QVQLQQSGAELMKPGASVKISCKATGYTFSRYWIEWVKQRPGHGLEWIGEILPGSGSTNYNEKFKGKATFTADTSSNTAYMQVSSLTSEDSAVHYCARRGYGYVPYALDYWGQGTSVTVSS
VL: EIQMTQTTSSLSASLGDRVTISCRASQDISNSLNWYQQKPDGTVNLLIYYTSRLYSGVPSRFSGSGSGTDYSLTISNLEQEDIATYFCQQGNTLPYTFGGGTKLEIK
modifications: synthon CZ on reduced interchain Cys
In the experiment with Human full length B7-H3 [1], B4 returned an EC50 of 0.56 nM.

B5: chAb16-CZ (antibody, IgG1, V domains shown)
VH: EVKLLESGGGLVQPGGSLKLSCAASGFDFSRYWMSWVRQAPGKGLEWIGEINPDSSTINYTPSLKDKFIISRDNAKNTLYLQMSKVRSEDTALYYCARPGFGNYIYAMDYWGQGTSVTVSS
VL: DIQMTQTTSSLSASLGDRVTINCRASQDISNFLNWYQQKPDGTVKLLIYYTSRLYLGVPSRFSGSGSGTDYSLTISNLEQEDIATYFCQQGNTLPPTFGGGTKLEIK
modifications: synthon CZ on reduced interchain Cys
The molecule B5 displayed an EC50 with Human full length B7-H3 [1] of 0.62 nM.

B6: chAb2-CZ (antibody, IgG1, V domains shown)
VH: QVQLQQPGAELVKPGASVKLSCKASGYTFTSYWMHWVKQRPGQGLEWIGMIHPDSGTTNYNEKFRSKATLTVDKSSSTAYMQLSSLTSEDSAVYYCAVYYGSTYWYFDVWGTGTTVTVSS
VL: DVVMTQTPLSLPVSLGDQAYISCRSSQSLVHINGNTYLHWYRQKPGQSPKLLIYKVSNRFSGVPDRFSGSGSGTDFTLKISRVEAEDLGVYFCSQSTHFPFTFGSGTKLEIK
modifications: synthon CZ on reduced interchain Cys
B6 yielded an EC50 in the experiment with Human full length B7-H3 [1] of 2.6 nM.

B7: chAb14-CZ (antibody, IgG1, V domains shown)
VH: EVKLVESGGGLVKPGGSLKLSCAASGFTFSSYGMSWVRQTPEKRLEWVATISGGGTNTYYPDSVEGRFTISRDNAKNFLYLQMSSLRSEDTALYYCARHYGSQTMDYWGQGTSVTVSS
VL: DIQMTQSPASLSASVGETVTITCRTSGNIHNYLTWYQQKQGKSPQLLVYNAKTLADGVPSRFSGSGSGTQFSLKINSLQPEDFGSYYCQHFWSIMWTFGGGTKLEIK
modifications: synthon CZ on reduced interchain Cys
As to B7, the EC50 with Human full length B7-H3 [1] turned out to be 0.5 nM.

B8: chAb4-CZ (antibody, IgG1, V domains shown)
VH: QVQLQQPGAELVKPGASVKLSCKASGYSFTSYWMHWVKQRPGQGLEWIGMIHPNSGSNNYNEKFKSKATLTVDKSSNTAYMQLSSLTSEDSAVYYCARRLGLHFDYWGQGTTLTVSS
VL: DIVMTQSQKFMSTPVGDRVSITCKASQNVGTAVAWYQQKPGQSPKLLIYSASNRYTGVPDRFTGSGSGTDFTLTISNMQSEDLADYFCQQYSSYPYTFGGGTKLEIK
modifications: synthon CZ on reduced interchain Cys
The molecule B8 came in with an EC50 with Human full length B7-H3 [1] of 0.54 nM.

B9: huAb3v1 (antibody, V domains shown)
VH: EVQLVQSGAEVKKPGSSVKVSCKASGYTFSSYWMHWVRQAPGQGLEWMGLIHPDSGSTNYNEMFKNRVTITADKSTSTAYMELSSLRSEDTAVYYCARGGRLYFDYWGQGTTVTVSS
VL: DIVMTQSPLSLPVTPGEPASISCRSSQSLVHSNGDTYLRWYLQKPGQSPQLLIYKVSNRFSGVPDRFSGSGSGTDFTLKISRVEAEDVGVYYCSQSTHVPYTFGGGTKVEIK
notes: humanized IgG
B9 showed a Kd in experiment [5] of 0.52 nM.

B10: huAb3v5 (antibody, V domains shown)
VH: EVQLVQSGAEVKKPGSSVKVSCKASGYTFSSYWMHWVRQAPGQGLEWIGLIHPDSGSTNYNEMFKNRATLTVDRSTSTAYMELSSLRSEDTAVYYCAGGGRLYFDYWGQGTTVTVSS
VL: DVVMTQSPLSLPVTPGEPASISCRSSQSLVHSNGDTYLRWYLQKPGQSPQLLIYKVSNRFSGVPDRFSGSGSGTDFTLKISRVEAEDVGVYYCSQSTHVPYTFGGGTKVEIK
notes: humanized IgG
B10: binding in experiment [5] was put at a Kd of 0.23 nM.

B11: huAb3v3 (antibody, V domains shown)
VH: EVQLVQSGAEVKKPGSSVKVSCKASGYTFSSYWMHWVRQAPGQGLEWIGLIHPDSGSTNYNEMFKNRATLTVDRSTSTAYVELSSLRSEDTAVYFCAGGGRLYFDYWGQGTTVTVSS
VL: DVVMTQSPLSLPVTPGEPASISCRSSQSLVHSNGDTYLRWYLQKPGQSPQLLIYKVSNRFSGVPDRFSGSGSGTDFTLKISRVEAEDVGVYFCSQSTHVPYTFGGGTKVEIK
notes: humanized IgG
B11 had a Kd in experiment [5] of 0.23 nM.

B12: huAb3v4 (antibody, V domains shown)
VH: EVQLVQSGAEVKKPGSSVKVSCKASGYTFSSYWMHWVRQAPGQGLEWMGLIHPDSGSTNYNEMFKNRVTITADKSTSTAYMELSSLRSEDTAVYYCARGGRLYFDYWGQGTTVTVSS
VL: DVVMTQSPLSLPVTPGEPASISCRSSQSLVHSNGDTYLRWYLQKPGQSPQLLIYKVSNRFSGVPDRFSGSGSGTDFTLKISRVEAEDVGVYYCSQSTHVPYTFGGGTKVEIK
notes: humanized IgG
As for B12, the Kd in experiment [5] was determined as 0.57 nM.
